± gives the standard deviation of the averaged measurements.
Tested on: ATP
Assay: switch fluorescence ratio, 500 uM ATP over buffer (Cy3 cluster intensity, sum of 5 cycles each) (fold (ratio)); higher = stronger signal-on switching upon ATP binding; sequences stand for … in TCGTCGGCAGCGTCAGATGTGTATAAGAGACAGTTTTTTTTTTTTTTTTTTTTTTTTT…TC
Conditions: aptamer strand: ATP DNA aptamer (quencher-CACCTGGGGGAGTATTGCGGAGGAAGG + anchor), 100 nM annealed; ATP concentration: 500 uM
In short: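 Clusters carrying Cy3-labelled switching strands on a modified Illumina MiSeq flow-cell were annealed to 100 nM quencher-labelled ATP aptamer and imaged in selection buffer. They were imaged again after 15 min with 500 uM ATP at 22 °C, over five buffer/ATP cycles with NaOH stripping and re-annealing in between. For each cluster, the fluorescence ratio is the summed Cy3 intensity of the target cycles divided by that of the buffer cycles, averaged per switch-domain sequence. Clusters outside 100-1000 RFU were left out.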
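Note: ATP exposure 15 min at 22 °C before imaging.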

Row | Sequence | switch fluorescence ratio
1 | TAAGAAGGGG | 1.02 ± 0.023
2 | TAAGAAGGGT | 0.991 ± 0.024
3 | TAAGAATGGG | 0.9966 ± 0.0078
4 | TAAGACGTTT | 1.0122 ± 0.00032
5 | TAAGACTGAT | 1.016 ± 0.0019
6 | TAAGAGCCGT | 1.02 ± 0.012
7 | TAAGAGGCCA | 1.02 ± 0.017
8 | TAAGAGGGCA | 1.01 ± 0.014
9 | TAAGAGGGGG | 0.996 ± 0.052
10 | TAAGAGGGTA | 0.974 ± 0.06
11 | TAAGATGGCT | 1.11 ± 0.092
12 | TAAGATTTGT | 0.99 ± 0.02
13 | TAAGATTTTA | 1 ± 0.042
14 | TAAGCAGCGA | 1.045 ± 0.0036
15 | TAAGCCGCGT | 1.008 ± 0.0083
16 | TAAGCGGGTA | 1.02 ± 0.016
17 | TAAGCGGGTC | 1 ± 0.018
18 | TAAGCTAAGG | 1.04 ± 0.016
19 | TAAGCTGCCA | 1.02 ± 0.015
20 | TAAGCTGTCA | 0.965 ± 0.064
21 | TAAGCTTCAT | 1.04 ± 0.18
22 | TAAGGAAAGA | 1.08 ± 0.12
23 | TAAGGAAAGT | 0.991 ± 0.027
24 | TAAGGAAGGA | 0.9919 ± 0.0054
25 | TAAGGAAGGG | 1.004 ± 0.0075
26 | TAAGGAATGA | 0.993 ± 0.019

Row | Sequence | switch fluorescence ratio
27 | TAAGGAGAGG | 1.01 ± 0.027
28 | TAAGGAGGGG | 0.981 ± 0.024
29 | TAAGGATGTT | 0.974 ± 0.026
30 | TAAGGCCACG | 0.9975 ± 0.0099
31 | TAAGGCCCGG | 1 ± 0.03
32 | TAAGGCCGGG | 0.9809 ± 0.0045
33 | TAAGGCGGGC | 0.988 ± 0.032
34 | TAAGGCTCGG | 0.994 ± 0.02
35 | TAAGGCTGGG | 0.962 ± 0.034
36 | TAAGGGAAAC | 0.963 ± 0.013
37 | TAAGGGAATG | 0.985 ± 0.061
38 | TAAGGGACAC | 1.05 ± 0.017
39 | TAAGGGACGT | 1.01 ± 0.034
40 | TAAGGGATAG | 0.985 ± 0.043
41 | TAAGGGCGTT | 0.994 ± 0.022
42 | TAAGGGGAAG | 1.04 ± 0.015
43 | TAAGGGGATT | 1.03 ± 0.047
44 | TAAGGGGGAG | 0.999 ± 0.01
45 | TAAGGGGGTC | 0.981 ± 0.012
46 | TAAGGGTCAG | 0.9953 ± 0.0012
47 | TAAGGGTCCC | 0.965 ± 0.016
48 | TAAGGGTGA | 1.03 ± 0.015
49 | TAAGGGTTAT | 0.978 ± 0.023
50 | TAAGGGTTTA | 1.06 ± 0.1
51 | TAAGGTACAT | 1.09 ± 0.012
52 | TAAGGTAGGG | 1.01 ± 0.013

Row | Sequence | switch fluorescence ratio
53 | TAAGGTGTTG | 1.04 ± 0.024
54 | TAAGGTTCAC | 1.003 ± 0.0083
55 | TAAGGTTTGG | 0.9862 ± 0.0092
56 | TAAGTACCGG | 1.06 ± 0.038
57 | TAAGTACGGC | 1.31 ± 0.02
58 | TAAGTAGTTT | 1.02 ± 0.013
59 | TAAGTATAGT | 1.0211 ± 0.00015
60 | TAAGTCGGTC | 0.9827 ± 0.0011
61 | TAAGTCGTGG | 0.9735 ± 0.0019
62 | TAAGTGCGGA | 0.982 ± 0.011
63 | TAAGTGGGGG | 0.979 ± 0.03
64 | TAAGTGTTAG | 1.013 ± 0.0074
65 | TAAGTTACAA | 1.09 ± 0.019
66 | TAAGTTAGTA | 0.9786 ± 0.0091
67 | TAAGTTCTAA | 0.979 ± 0.018
68 | TAAGTTGGCT | 0.958 ± 0.023
69 | TAAGTTTCCT | 1.07 ± 0.03
70 | TAAGTTTGCA | 1.003 ± 0.0077
71 | TAAGTTTTAT | 0.984 ± 0.021
72 | TAAGTTTTGC | 0.979 ± 0.038
73 | TAAGTTTTTT | 0.99 ± 0.02
74 | TAATAAAATG | 0.99 ± 0.015
75 | TAATAATCAA | 1.02 ± 0.051
76 | TAATACGTTG | 1.03 ± 0.012
77 | TAATAGAAAA | 1.011 ± 0.006
78 | TAATAGACGG | 1 ± 0.026

Row | Sequence | switch fluorescence ratio
79 | TAATAGTAAT | 1.02 ± 0.011
80 | TAATAGTTTG | 1.028 ± 0.0095
81 | TAATATCATT | 1 ± 0.019
82 | TAATATGATT | 0.999 ± 0.029
83 | TAATATTCAA | 1.03 ± 0.014
84 | TAATATTCGA | 0.995 ± 0.018
85 | TAATATTGTT | 1.007 ± 0.0095
86 | TAATCAAAGT | 1.02 ± 0.018
87 | TAATCACCTA | 1.038 ± 0.0093
88 | TAATCCAGAA | 1.01 ± 0.082
89 | TAATCCATCG | 1.03 ± 0.049
90 | TAATCGGCTC | 1 ± 0.03
91 | TAATCGGCTG | 0.991 ± 0.069
92 | TAATCGGTG | 0.9805 ± 0.0024
93 | TAATCGTGGG | 1.02 ± 0.011
94 | TAATCTAATA | 0.987 ± 0.046
95 | TAATCTCCGG | 1.04 ± 0.04
96 | TAATCTTGGG | 1 ± 0.011
97 | TAATGAATAG | 1.01 ± 0.042
98 | TAATGAATTC | 1.003 ± 0.0081
99 | TAATGAGAAC | 0.974 ± 0.014
100 | TAATGAGGTC | 0.99 ± 0.046
101 | TAATGAGTTT | 1.006 ± 0.0016
102 | TAATGATTGT | 0.982 ± 0.042
103 | TAATGCGATG | 0.9852 ± 0.005
104 | TAATGGATGT | 0.976 ± 0.027

Row | Sequence | switch fluorescence ratio
105 | TAATGGGGGC | 0.994 ± 0.018
106 | TAATGGGGTT | 1 ± 0.024
107 | TAATGGGTTA | 1 ± 0.037
108 | TAATGGTGT | 1.02 ± 0.041
109 | TAATGTGCAA | 1.09 ± 0.013
110 | TAATGTGGGT | 0.967 ± 0.015
111 | TAATGTTTAT | 0.996 ± 0.026
112 | TAATTAGGGT | 1 ± 0.025
113 | TAATTATCTT | 0.979 ± 0.058
114 | TAATTATTCT | 1.02 ± 0.014
115 | TAATTCACCA | 1.18 ± 0.18
116 | TAATTCGACT | 1.02 ± 0.029
117 | TAATTCGGTT | 1 ± 0.021
118 | TAATTGAGAA | 0.986 ± 0.037
119 | TAATTGGAGT | 0.972 ± 0.014
120 | TAATTGGGTC | 1.024 ± 0.0024
121 | TAATTGTAAG | 0.979 ± 0.017
122 | TAATTGTCTA | 1 ± 0.043
123 | TAATTTACCT | 1.275 ± 0.0075
124 | TAATTTGAGG | 0.955 ± 0.012
125 | TAATTTGTCA | 1.008 ± 0.0076
126 | TAATTTTAGC | 0.9913 ± 0.0086
127 | TAATTTTGGC | 0.99 ± 0.018
128 | TACAAAAAGG | 0.981 ± 0.023
129 | TACAAGCGTA | 0.992 ± 0.014
130 | TACAAGGACG | 1.03 ± 0.098

Row | Sequence | switch fluorescence ratio
131 | TACAAGGGCA | 1.01 ± 0.037
132 | TACAAGTCAA | 1.02 ± 0.017
133 | TACAAGTTTG | 0.9965 ± 0.0053
134 | TACAATTGAA | 1 ± 0.025
135 | TACAATTTTT | 1.01 ± 0.028
136 | TACACAGCGG | 1.05 ± 0.045
137 | TACACGCGGG | 1.01 ± 0.048
138 | TACACTTTGC | 1.027 ± 0.0079
139 | TACAGAGGCA | 1.02 ± 0.031
140 | TACAGGCGCT | 0.994 ± 0.015
141 | TACAGGGACC | 1.022 ± 0.0034
142 | TACAGGGCTC | 1.05 ± 0.024
143 | TACAGGGGCC | 1 ± 0.022
144 | TACAGGTTGT | 1.21 ± 0.19
145 | TACAGTAGCT | 1.09 ± 0.011
146 | TACAGTTTCG | 1.03 ± 0.05
147 | TACATAAAAC | 1.011 ± 0.0025
148 | TACATATTCG | 0.989 ± 0.041
149 | TACCAAACGG | 2.23 ± 1.4
150 | TACCACTTAA | 1.03 ± 0.035
151 | TACCACTTTG | 1.24 ± 0.29
152 | TACCCCAATT | 1.068 ± 0.0037
153 | TACCGACATA | 1.189 ± 0.0084

Reference: the supplement of paper PMC10126150
